Results reported in patent publication US20240287154A1, “MC3R AGONIST PEPTIDES” (The Regents of the University of Michigan, priority 2021, published 2024).
Non-standard residues stand in square brackets, D forms with d. d(αMeW) = C[C@@](N)(Cc1c[nH]c2ccccc12)C(=O)O; Phe(4-F) = N[C@@H](Cc1ccc(F)cc1)C(=O)O; Phe(4-I) = N[C@@H](Cc1ccc(I)cc1)C(=O)O; 2Nal = N[C@@H](Cc1ccc2ccccc2c1)C(=O)O; d2Nal = N[C@H](Cc1ccc2ccccc2c1)C(=O)O; dTic = O=C(O)[C@H]1Cc2ccccc2CN1; NMeK = CN[C@@H](CCCCN)C(=O)O; NMeA = CN[C@@H](C)C(=O)O; Nle = CCCC[C@H](N)C(=O)O; dAbu = CC[C@@H](N)C(=O)O; Aib = CC(C)(N)C(=O)O

B1: CTX-1504 (peptide)
peptide: Ac-[Nle][dA]H[Phe(4-I)]R[dTic]DRFG-OH
B2: CTX-1135 (peptide)
peptide: YVXXHFRWDRFG
modifications: Nle at 3; D-Abu at 4; D-Trp at 8
B3: CTX-1528 (peptide)
peptide: Ac-[Nle][dA]HFR[dW]ARFG-OH
SMILES: CCCC[C@H](NC(C)=O)C(=O)N[C@H](C)C(=O)N[C@@H](Cc1c[nH]cn1)C(=O)N[C@@H](Cc1ccccc1)C(=O)N[C@@H](CCCNC(=N)N)C(=O)N[C@H](Cc1c[nH]c2ccccc12)C(=O)N[C@@H](C)C(=O)N[C@@H](CCCNC(=N)N)C(=O)N[C@@H](Cc1ccccc1)C(=O)NCC(=O)O
B4: CTX-1502 (peptide)
peptide: Ac-[Nle][dA]H[Phe(4-I)]R[d2Nal]DRFG-OH
SMILES: CCCC[C@H](NC(C)=O)C(=O)N[C@H](C)C(=O)N[C@@H](Cc1c[nH]cn1)C(=O)N[C@@H](Cc1ccc(I)cc1)C(=O)N[C@@H](CCCNC(=N)N)C(=O)N[C@H](Cc1ccc2ccccc2c1)C(=O)N[C@@H](CC(=O)O)C(=O)N[C@@H](CCCNC(=N)N)C(=O)N[C@@H](Cc1ccccc1)C(=O)NCC(=O)O
B5: CTX-1530 (peptide)
peptide: Ac-[Nle][dA]HFR[dW][dF]RFG-OH
SMILES: CCCC[C@H](NC(C)=O)C(=O)N[C@H](C)C(=O)N[C@@H](Cc1c[nH]cn1)C(=O)N[C@@H](Cc1ccccc1)C(=O)N[C@@H](CCCNC(=N)N)C(=O)N[C@H](Cc1c[nH]c2ccccc12)C(=O)N[C@H](Cc1ccccc1)C(=O)N[C@@H](CCCNC(=N)N)C(=O)N[C@@H](Cc1ccccc1)C(=O)NCC(=O)O
B6: CTX-1129 (peptide)
peptide: H-YV[Nle]AHFR[dW]D-NH2
SMILES: CCCC[C@H](NC(=O)[C@@H](NC(=O)[C@@H](N)Cc1ccc(O)cc1)C(C)C)C(=O)N[C@@H](C)C(=O)N[C@@H](Cc1c[nH]cn1)C(=O)N[C@@H](Cc1ccccc1)C(=O)N[C@@H](CCCNC(=N)N)C(=O)N[C@H](Cc1c[nH]c2ccccc12)C(=O)N[C@@H](CC(=O)O)C(N)=O
B7: CTX-1189 (peptide)
peptide: Ac-[Nle][dA][NMeK]FR[dW]DRFG-OH
SMILES: CCCC[C@H](NC(C)=O)C(=O)N[C@H](C)C(=O)N(C)[C@@H](CCCCN)C(=O)N[C@@H](Cc1ccccc1)C(=O)N[C@@H](CCCNC(=N)N)C(=O)N[C@H](Cc1c[nH]c2ccccc12)C(=O)N[C@@H](CC(=O)O)C(=O)N[C@@H](CCCNC(=N)N)C(=O)N[C@@H](Cc1ccccc1)C(=O)NCC(=O)O
B8: CTX-1194 (peptide)
peptide: Ac-YVE[dAbu]H[Phe(4-I)]R[dW]DRFG-OH
SMILES: CC[C@@H](NC(=O)[C@H](CCC(=O)O)NC(=O)[C@@H](NC(=O)[C@H](Cc1ccc(O)cc1)NC(C)=O)C(C)C)C(=O)N[C@@H](Cc1c[nH]cn1)C(=O)N[C@@H](Cc1ccc(I)cc1)C(=O)N[C@@H](CCCNC(=N)N)C(=O)N[C@H](Cc1c[nH]c2ccccc12)C(=O)N[C@@H](CC(=O)O)C(=O)N[C@@H](CCCNC(=N)N)C(=O)N[C@@H](Cc1ccccc1)C(=O)NCC(=O)O
B9: CTX-1190 (peptide)
peptide: Ac-[Nle][dA][NMeA]FR[dW]DRFG-OH
SMILES: CCCC[C@H](NC(C)=O)C(=O)N[C@H](C)C(=O)N(C)[C@@H](C)C(=O)N[C@@H](Cc1ccccc1)C(=O)N[C@@H](CCCNC(=N)N)C(=O)N[C@H](Cc1c[nH]c2ccccc12)C(=O)N[C@@H](CC(=O)O)C(=O)N[C@@H](CCCNC(=N)N)C(=O)N[C@@H](Cc1ccccc1)C(=O)NCC(=O)O
B10: CTX-1506 (peptide)
peptide: Ac-[Nle][dA]P[Phe(4-I)]R[dF]DRFG-OH
SMILES: CCCC[C@H](NC(C)=O)C(=O)N[C@H](C)C(=O)N1CCC[C@H]1C(=O)N[C@@H](Cc1ccc(I)cc1)C(=O)N[C@@H](CCCNC(=N)N)C(=O)N[C@H](Cc1ccccc1)C(=O)N[C@@H](CC(=O)O)C(=O)N[C@@H](CCCNC(=N)N)C(=O)N[C@@H](Cc1ccccc1)C(=O)NCC(=O)O
B11: CTX-1501 (peptide)
peptide: Ac-[Nle][dA]H[Phe(4-I)][dR]WDRFG-OH
SMILES: CCCC[C@H](NC(C)=O)C(=O)N[C@H](C)C(=O)N[C@@H](Cc1c[nH]cn1)C(=O)N[C@@H](Cc1ccc(I)cc1)C(=O)N[C@H](CCCNC(=N)N)C(=O)N[C@@H](Cc1c[nH]c2ccccc12)C(=O)N[C@@H](CC(=O)O)C(=O)N[C@@H](CCCNC(=N)N)C(=O)N[C@@H](Cc1ccccc1)C(=O)NCC(=O)O
B12: CTX-1197 (peptide)
peptide: Ac-[Nle][dA]R[Phe(4-I)]R[dW]DRFG-OH
SMILES: CCCC[C@H](NC(C)=O)C(=O)N[C@H](C)C(=O)N[C@@H](CCCNC(=N)N)C(=O)N[C@@H](Cc1ccc(I)cc1)C(=O)N[C@@H](CCCNC(=N)N)C(=O)N[C@H](Cc1c[nH]c2ccccc12)C(=O)N[C@@H](CC(=O)O)C(=O)N[C@@H](CCCNC(=N)N)C(=O)N[C@@H](Cc1ccccc1)C(=O)NCC(=O)O
B13: CTX-1191 (peptide)
peptide: Ac-[Nle][dAbu]H[Phe(4-I)]R[dW]DRFG-OH
SMILES: CCCC[C@H](NC(C)=O)C(=O)N[C@H](CC)C(=O)N[C@@H](Cc1c[nH]cn1)C(=O)N[C@@H](Cc1ccc(I)cc1)C(=O)N[C@@H](CCCNC(=N)N)C(=O)N[C@H](Cc1c[nH]c2ccccc12)C(=O)N[C@@H](CC(=O)O)C(=O)N[C@@H](CCCNC(=N)N)C(=O)N[C@@H](Cc1ccccc1)C(=O)NCC(=O)O
B14: CTX-1512 (peptide)
peptide: Ac-[Nle][dA]H[2Nal]R[dW]DRFG-OH
SMILES: CCCC[C@H](NC(C)=O)C(=O)N[C@H](C)C(=O)N[C@@H](Cc1c[nH]cn1)C(=O)N[C@@H](Cc1ccc2ccccc2c1)C(=O)N[C@@H](CCCNC(=N)N)C(=O)N[C@H](Cc1c[nH]c2ccccc12)C(=O)N[C@@H](CC(=O)O)C(=O)N[C@@H](CCCNC(=N)N)C(=O)N[C@@H](Cc1ccccc1)C(=O)NCC(=O)O
B15: CTX-1195 (peptide)
peptide: Ac-YVE[Aib]H[Phe(4-I)]R[dW]DRFG-OH
SMILES: CC(=O)N[C@@H](Cc1ccc(O)cc1)C(=O)N[C@H](C(=O)N[C@@H](CCC(=O)O)C(=O)NC(C)(C)C(=O)N[C@@H](Cc1c[nH]cn1)C(=O)N[C@@H](Cc1ccc(I)cc1)C(=O)N[C@@H](CCCNC(=N)N)C(=O)N[C@H](Cc1c[nH]c2ccccc12)C(=O)N[C@@H](CC(=O)O)C(=O)N[C@@H](CCCNC(=N)N)C(=O)N[C@@H](Cc1ccccc1)C(=O)NCC(=O)O)C(C)C
B16: CTX-1529 (peptide)
peptide: Ac-[Nle][dA]HFR[dW]FRFG-OH
SMILES: CCCC[C@H](NC(C)=O)C(=O)N[C@H](C)C(=O)N[C@@H](Cc1c[nH]cn1)C(=O)N[C@@H](Cc1ccccc1)C(=O)N[C@@H](CCCNC(=N)N)C(=O)N[C@H](Cc1c[nH]c2ccccc12)C(=O)N[C@@H](Cc1ccccc1)C(=O)N[C@@H](CCCNC(=N)N)C(=O)N[C@@H](Cc1ccccc1)C(=O)NCC(=O)O
B17: CTX-1503 (peptide)
peptide: Ac-[Nle][dA]H[Phe(4-I)]R[dF]DRFG-OH
SMILES: CCCC[C@H](NC(C)=O)C(=O)N[C@H](C)C(=O)N[C@@H](Cc1c[nH]cn1)C(=O)N[C@@H](Cc1ccc(I)cc1)C(=O)N[C@@H](CCCNC(=N)N)C(=O)N[C@H](Cc1ccccc1)C(=O)N[C@@H](CC(=O)O)C(=O)N[C@@H](CCCNC(=N)N)C(=O)N[C@@H](Cc1ccccc1)C(=O)NCC(=O)O
B18: CTX-1510 (peptide)
peptide: Ac-[Nle][dA]HFR[d(αMeW)]DRFG-OH
SMILES: CCCC[C@H](NC(C)=O)C(=O)N[C@H](C)C(=O)N[C@@H](Cc1c[nH]cn1)C(=O)N[C@@H](Cc1ccccc1)C(=O)N[C@@H](CCCNC(=N)N)C(=O)N[C@](C)(Cc1c[nH]c2ccccc12)C(=O)N[C@@H](CC(=O)O)C(=O)N[C@@H](CCCNC(=N)N)C(=O)N[C@@H](Cc1ccccc1)C(=O)NCC(=O)O
B19: CTX-1523 (peptide)
peptide: Ac-[Nle][dA]HFK[dW]DRFG-OH
SMILES: CCCC[C@H](NC(C)=O)C(=O)N[C@H](C)C(=O)N[C@@H](Cc1c[nH]cn1)C(=O)N[C@@H](Cc1ccccc1)C(=O)N[C@@H](CCCCN)C(=O)N[C@H](Cc1c[nH]c2ccccc12)C(=O)N[C@@H](CC(=O)O)C(=O)N[C@@H](CCCNC(=N)N)C(=O)N[C@@H](Cc1ccccc1)C(=O)NCC(=O)O
B20: CTX-1518 (peptide)
peptide: Ac-[Nle][dA]H[Phe(4-F)]R[dW]DRFG-OH
SMILES: CCCC[C@H](NC(C)=O)C(=O)N[C@H](C)C(=O)N[C@@H](Cc1c[nH]cn1)C(=O)N[C@@H](Cc1ccc(F)cc1)C(=O)N[C@@H](CCCNC(=N)N)C(=O)N[C@H](Cc1c[nH]c2ccccc12)C(=O)N[C@@H](CC(=O)O)C(=O)N[C@@H](CCCNC(=N)N)C(=O)N[C@@H](Cc1ccccc1)C(=O)NCC(=O)O

The binders below were run against human MC3R (human, UniProt P41968 1-323) (assay: cell-based or functional assay).
human MC3R, sequence (P41968 whole entry): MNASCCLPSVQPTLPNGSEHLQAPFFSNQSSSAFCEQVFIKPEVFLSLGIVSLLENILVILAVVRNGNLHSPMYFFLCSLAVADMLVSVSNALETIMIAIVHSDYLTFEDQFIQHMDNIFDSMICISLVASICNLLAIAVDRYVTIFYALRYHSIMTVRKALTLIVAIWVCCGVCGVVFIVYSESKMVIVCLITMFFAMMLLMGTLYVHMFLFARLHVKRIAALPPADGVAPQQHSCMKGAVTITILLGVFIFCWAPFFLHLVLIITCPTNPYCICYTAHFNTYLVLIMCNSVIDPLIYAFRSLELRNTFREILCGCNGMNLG

Binder	MC3R selectivity (relative to MC4R)	MC3R cAMP (EC50) [nM]
B1	1	–
B2	667	1
B3	182	1.9
B4	184	6.7
B5	–	289
B6	7.5	1.2
B7	1	3540
B8	49	34.3
B9	–	3920
B10	1	–
B11	0.01	2800
B12	250	13.5
B13	470	3.9
B14	804	13.1
B15	51	184
B16	82	4.8
B17	214	124
B18	23	181
B19	5320	41.7
B20	1560	1.9
